The results in this text go back to article PMC9104551.

The test system of the data set is XylR (ROK family transcriptional regulator) (Paenibacillus polymyxa ATCC842). The data set can be described thus: EMSA. The following applies: Chemiluminescent EMSA Kit (Beyotime), biotinylated PCR probes; XylR 0.02-0.1 g/L (protein:probe 20.9-104.4) for BST/DTE; buffer, pH, temperature not stated.
Take -1C (A/T to C/G outside site): the binding signal is 50.8 % bound.
-1G (A/T to G/C outside site): the binding signal amounted to 64.5 % bound.
-1T (A/T to T/A outside site) displayed a binding signal of 61.3 % bound.
In the case of -2C (A/T to C/G outside site), the binding signal was determined as 57.6 % bound.
The value for -2G (A/T to G/C outside site) was 60.8 % bound; that for -2T (A/T to T/A outside site) was 65.4 % bound.
Substance BST 1C (A/T to C/G) yielded a binding signal of 19.8 % bound.
Take BST 1G (A/T to G/C): the binding signal was found to be 18.8 % bound.
Then BST 1T (A/T to T/A), with 30 % bound.
The value for BST 17A (G71A) was 1.9 % bound; that for BST 17C (G71C) was 63.5 % bound; that for BST 17T (G71T) was 52.1 % bound.
The substance BST (full predicted site) came in with a binding signal of 70 % bound.
